In US20050113286A1, “Methods for treating congestive heart failure” (priority 2002, published 2005):
Entries after “also recorded” stand apart in the source; their conditions may differ.

Columns and labels:
endothelin-1 = test: FUSION I: serum endothelin-1; format: in vivo, human
From the text: Surrogate measures with mechanistic implications included measures of serum aldosterone, serum endothelin-1, and serial measurements of ventricular function using ejection fractions derived from echocardiography. […] Left ventricular ejection fractions were serially measured and read at a core lab (Midwest Heart Foundation Echocardiographic Core Laboratory, Lombard, Ill.).

[1] = test system: patients with chronic decompensated HF; test: FUSION I: safety and tolerability of serial outpatient nesiritide infusions; format: in vivo; conditions: for Patients discontinued from the study before week 12 because of an AE, number / Patients discontinued from the study prematurely due to an AE, %: primarily worsening HF
Procedure: The objective of the FUSION I study was to assess the safety and tolerability of nesiritide when administered in an outpatient setting as serial parenteral infusions to patients with chronic decompensated HF who were at high risk for hospitalization and were receiving established usual therapy for HF. The study compared usual care with usual care plus nesiritide given as 1 of 2 dosing strategies. All patients were evaluated weekly and treated in established HF clinics.
In this multicenter, open-label, pilot study, patients were randomly assigned to 1 of 3 treatment groups in a 1:1:1 ratio: (1) usual care, as determined by the investigating physician; (2) usual care plus nesiritide 0.005 μg/kg/min given for 4 to 6 hours, preceded by a 1.0-μg/kg bolus; or (3) usual care plus nesiritide 0.01 μg/kg/min given for 4 to 6 hours, preceded by a 2.0-μg/kg bolus (FIG. 1). The study treatment period was 12 weeks with an additional 4 weeks of follow-up. Nesiritide (Natrecor®) was supplied by Scios Inc., Fremont, Calif. Informed consent was obtained from each patient prior to enrollment, and the Ethics Committee of each institution prospectively approved the study.
All patients, regardless of treatment assignment, were required to have weekly clinic visits in an established HF clinic. If the patient had been randomized to nesiritide, half of the protocol-specified nesiritide dose was administered on the first weekly visit to assess safety. The 0.005 μg/kg/min nesiritide group received a 0.5 μg/kg bolus followed by a 0.0025 μg/kg/min infusion; and the 0.01 μg/kg/min nesiritide group received a 1.0 μg/kg bolus followed by a 0.005 μg/kg/min infusion. At subsequent visits (starting with week 2), the dose was increased to the protocol-specified dose for that group.
Nesiritide was administered as an IV bolus immediately followed by a fixed-rate infusion for 4 to 6 hours, based on the investigators' discretion, for 12 consecutive weeks. Before each infusion, the investigator assessed the patient's hydration status and HF symptoms as per the protocol. The investigator could choose the infusion frequency from once every other week to twice weekly based on hydration status and HF symptoms.
The primary goal of this open-label study was to assess the safety and tolerability of different nesiritide doses administered as serial outpatient infusions. Safety and tolerability were measured through investigator reporting of adverse events (AEs), serious AEs, discontinuations of study infusions, laboratory assessments, and vital signs. An AE was defined as any new onset or worsening of any medical condition since study entry. A serious AE were those AEs, which lead to death, hospitalization, or prolonged hospitalization. The effect of nesiritide infusions on renal function was also monitored as a safety variable, with renal AEs defined as increased blood urea nitrogen (BUN) or serum creatinine levels (determined by investigator's discretion), onset of oliguria, or occurrence of acute renal failure. Clinical events were followed to further evaluate safety and tolerability.

[2] = test system: patients with chronic decompensated HF; test: FUSION I: left ventricular ejection fraction by echocardiography; format: in vivo, human
From the text: (§1) Surrogate measures with mechanistic implications included measures of serum aldosterone, serum endothelin-1, and serial measurements of ventricular function using ejection fractions derived from echocardiography. Pre-infusion aldosterone and endothelin-1 concentrations were collected and analyzed at a core lab (The Mayo Clinic, Rochester, Minn.) at weeks 1, 4, 8, and 12; post-infusion concentrations were collected at weeks 1 and 12. Left ventricular ejection fractions were serially measured and read at a core lab (Midwest Heart Foundation Echocardiographic Core Laboratory, Lombard, Ill.).

aldosterone = test: FUSION I: serum aldosterone; format: in vivo, human
From the text: as §1

[3] = 0.005 μg/kg/min, n = 72, 819 infusions
[4] = 0.01 μg/kg/min, n = 69, 826 infusions
[5] = all nesiritide patients, n = 141
[6] = all nesiritide patients, n = 141, 1645 infusions

Nesiritide: a recombinant form of human B-type natriuretic peptide (BNP)
Mean change (±standard deviation) in post-infusion concentration of endothelin-1 (endothelin-1; 0.005-μg/kg/min): -0.2 ± 1.5 pg/mL | Mean change (±standard deviation) in post-infusion concentration of endothelin-1 (endothelin-1; 0.01-μg/kg/min, p=0.04 compared to baseline): -0.6 ± 2.0 pg/mL | Post-infusion levels of endothelin-1 versus baseline (endothelin-1; after the week 12 infusion, all-nesiritide group, p=0.008 (FIG. 2B)): significant change from baseline | Patients with infusion stopped due to adverse event, % ([1]; 0.005 μg/kg/min, n = 72): 6% | Patients with infusion stopped due to adverse event, number ([1]; 0.005 μg/kg/min, n = 72): 4 | Infusion completed, % of infusions [1, 3]: 99% | Infusion completed, number of infusions [1, 3]: 814 | Infusions stopped due to adverse event, % [1, 3]: < 1% | Infusions stopped due to adverse event, number [1, 3]: 4 | Patients discontinued from the study before week 12 because of an AE, number ([1]; 0.005 μg/kg/min): 7 | Patients discontinued from the study prematurely due to an AE, % ([1]; 0.005 μg/kg/min): 10% | Patients with infusion stopped due to adverse event, % ([1]; 0.01 μg/kg/min, n = 69): 7% | Patients with infusion stopped due to adverse event, number ([1]; 0.01 μg/kg/min, n = 69): 5 | Infusion completed, % of infusions [1, 4]: 99% | Infusion completed, number of infusions [1, 4]: 814 | Infusions stopped due to adverse event, % [1, 4]: < 1% | Infusions stopped due to adverse event, number [1, 4]: 7 | Patients discontinued from the study before week 12 because of an AE, number ([1]; 0.01 μg/kg/min): 2 | Patients discontinued from the study prematurely due to an AE, % ([1]; 0.01 μg/kg/min): 3% | Deaths considered related to study medication ([1]; 12-week treatment period): in no case | Adverse cardiovascular or renal events compared with usual care ([1]; RAS≧4 cohort): not associated with an increase; also recorded: tended to have a lower incidence | Patients with infusion stopped due to adverse event, % [1, 5]: 6% | Patients with infusion stopped due to adverse event, number [1, 5]: 9 | Infusion completed, % of infusions [1, 6]: 99% | Infusion completed, number of infusions [1, 6]: 1628 | Infusions stopped due to adverse event, % [1, 6]: < 1% | Infusions stopped due to adverse event, number [1, 6]: 11 | Infusion completed, number of infusions ([1]; all nesiritide patients, n = 141, 1645 infusions, listed as nesiritide): 1,628 | Safety and tolerability of serial outpatient infusions ([1]; both doses, 12 weeks, outpatient setting): similarly well tolerated; also recorded: safe and well tolerated | Frequency of observed AEs compared with usual-care group ([1]; either nesiritide group, through 12 weeks, all patients): no increase | Cardiovascular AEs, including symptomatic hypotension, and renal AEs compared to usual-care group ([1]; nesiritide groups, all patients): not increased | Mean change in ejection fraction from baseline to week 12 ([2]; 0.005-μg/kg/min): +4.0±3.3% | Mean change in ejection fraction from baseline to week 12 ([2]; 0.01-μg/kg/min, p=0.03 compared with the usual-care group): +5.3±5.0% | Post-infusion levels of aldosterone versus baseline (aldosterone; after the week 12 infusion, 0.01-μg/kg/min and all-nesiritide group, p<0.02 (FIG. 2A)): significant changes from baseline | Mean pre-infusion aldosterone values over time (aldosterone; any treatment group): no significant changes | Mean change from baseline (±standard deviation) in post-infusion aldosterone (aldosterone; week 1, 0.005-μg/kg/min): -5.0 ± 14.8 pg/mL | Mean change from baseline (±standard deviation) in post-infusion aldosterone (aldosterone; week 1, 0.01-μg/kg/min, p=0.02 compared to baseline): -10.9 ± 22.8 pg/mL | Mean post-infusion values of aldosterone versus baseline (aldosterone; weeks 1 and 12, both nesiritide groups): significant declines
